In patent US20140274782A1, “AFFINITY REAGENTS AND METHODS FOR DETECTION, PURIFICATION, AND PROTEOMIC ANALYSIS OF METHYLATED PROTEINS” (The Board of Trustees of the Leland Stanford Junior …, priority 2013, published 2014):

T1: G9a and GLP (Homo sapiens, UniProt Q96KQ7+Q9H9B1)
T1 sequence (Q96KQ7 2-1210 limits assumed): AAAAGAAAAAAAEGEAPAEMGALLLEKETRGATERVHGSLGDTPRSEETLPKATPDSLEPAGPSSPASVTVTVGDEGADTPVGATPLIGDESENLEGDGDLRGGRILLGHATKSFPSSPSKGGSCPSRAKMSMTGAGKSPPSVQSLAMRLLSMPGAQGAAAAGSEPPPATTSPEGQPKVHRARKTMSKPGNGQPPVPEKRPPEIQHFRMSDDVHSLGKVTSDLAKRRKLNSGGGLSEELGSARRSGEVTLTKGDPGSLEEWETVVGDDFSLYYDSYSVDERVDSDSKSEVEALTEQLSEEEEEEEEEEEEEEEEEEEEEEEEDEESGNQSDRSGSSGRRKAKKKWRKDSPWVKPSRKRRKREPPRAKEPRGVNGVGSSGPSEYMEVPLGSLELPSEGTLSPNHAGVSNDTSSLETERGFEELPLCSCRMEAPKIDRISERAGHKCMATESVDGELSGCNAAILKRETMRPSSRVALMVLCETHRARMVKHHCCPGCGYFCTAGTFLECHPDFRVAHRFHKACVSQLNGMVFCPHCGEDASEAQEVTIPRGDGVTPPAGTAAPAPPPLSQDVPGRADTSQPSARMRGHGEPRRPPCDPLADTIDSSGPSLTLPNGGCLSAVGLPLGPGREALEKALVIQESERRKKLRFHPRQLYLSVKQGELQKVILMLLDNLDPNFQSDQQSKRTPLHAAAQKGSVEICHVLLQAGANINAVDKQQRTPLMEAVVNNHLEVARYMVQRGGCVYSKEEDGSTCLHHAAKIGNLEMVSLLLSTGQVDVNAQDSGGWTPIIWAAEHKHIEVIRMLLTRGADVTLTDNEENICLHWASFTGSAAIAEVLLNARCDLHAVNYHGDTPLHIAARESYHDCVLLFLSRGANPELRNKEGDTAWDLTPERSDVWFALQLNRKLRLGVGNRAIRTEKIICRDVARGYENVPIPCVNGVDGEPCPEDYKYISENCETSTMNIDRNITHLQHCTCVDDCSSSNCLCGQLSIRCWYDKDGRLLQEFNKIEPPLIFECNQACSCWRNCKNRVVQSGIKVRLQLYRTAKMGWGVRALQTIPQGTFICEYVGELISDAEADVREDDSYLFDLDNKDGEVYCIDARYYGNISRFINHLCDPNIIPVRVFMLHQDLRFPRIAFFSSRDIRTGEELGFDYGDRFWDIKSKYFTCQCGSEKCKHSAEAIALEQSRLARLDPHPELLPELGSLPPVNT
T1 sequence (Q9H9B1 2-1298 limits assumed): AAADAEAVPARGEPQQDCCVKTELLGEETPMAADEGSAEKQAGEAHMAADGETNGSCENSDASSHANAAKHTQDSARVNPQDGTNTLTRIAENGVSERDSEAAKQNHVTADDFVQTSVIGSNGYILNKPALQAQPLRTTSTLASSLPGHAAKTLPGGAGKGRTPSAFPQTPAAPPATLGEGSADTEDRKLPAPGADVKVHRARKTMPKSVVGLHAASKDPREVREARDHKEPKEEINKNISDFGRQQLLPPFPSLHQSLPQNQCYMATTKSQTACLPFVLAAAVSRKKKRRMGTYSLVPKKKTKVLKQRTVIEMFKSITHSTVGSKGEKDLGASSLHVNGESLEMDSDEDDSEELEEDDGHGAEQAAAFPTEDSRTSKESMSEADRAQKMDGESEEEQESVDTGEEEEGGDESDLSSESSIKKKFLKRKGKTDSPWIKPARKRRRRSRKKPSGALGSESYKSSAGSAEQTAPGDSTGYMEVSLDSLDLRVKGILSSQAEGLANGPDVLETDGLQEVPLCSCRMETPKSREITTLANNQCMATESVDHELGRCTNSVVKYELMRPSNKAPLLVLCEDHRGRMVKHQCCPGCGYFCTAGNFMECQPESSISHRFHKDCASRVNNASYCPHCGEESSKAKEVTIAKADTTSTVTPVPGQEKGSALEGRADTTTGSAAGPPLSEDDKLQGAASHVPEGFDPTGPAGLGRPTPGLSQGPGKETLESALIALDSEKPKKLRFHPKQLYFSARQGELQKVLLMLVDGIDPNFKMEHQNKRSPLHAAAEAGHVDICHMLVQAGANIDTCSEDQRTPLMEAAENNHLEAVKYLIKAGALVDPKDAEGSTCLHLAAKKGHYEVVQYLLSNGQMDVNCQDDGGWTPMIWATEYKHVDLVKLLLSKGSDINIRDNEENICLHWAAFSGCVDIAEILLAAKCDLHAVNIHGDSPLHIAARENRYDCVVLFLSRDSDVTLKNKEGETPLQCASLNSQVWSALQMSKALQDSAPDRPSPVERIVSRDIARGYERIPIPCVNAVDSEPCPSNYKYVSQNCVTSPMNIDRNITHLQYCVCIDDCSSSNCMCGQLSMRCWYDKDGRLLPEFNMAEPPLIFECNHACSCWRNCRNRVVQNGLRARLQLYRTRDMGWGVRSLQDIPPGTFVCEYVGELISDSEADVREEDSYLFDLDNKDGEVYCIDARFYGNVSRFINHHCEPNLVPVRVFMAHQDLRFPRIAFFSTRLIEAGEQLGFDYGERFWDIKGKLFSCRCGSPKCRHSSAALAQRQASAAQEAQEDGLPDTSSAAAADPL


How the values were obtained:
[1] = biological target: T1, G9a and GLP; test: Triple SILAC pull-down after UNC0638 treatment of 293T cells, DMSO/UNC0638 ratio of protein captured by 3×MBT; format: cell-based; design: cells were treated for 24 hours with UNC0638 at 2.5 μM or DMSO vehicle control; endogenous in cells; host or cells: HEK 293T; conditions: for Relative to UNC0638 UNC Heavy: UNC0638 in heavy SILAC media; for Relative to UNC0638 UNC Light: UNC0638 in light SILAC media; for Relative to UNC0638 Average: average of UNC Light and UNC Heavy experiments;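 as to all read-outs here: mass spectrometry (Q-Exactive) SILAC quantitation, DMSO/UNC0638 ratio computed after subtracting 3×MBTD355N mutant pull-down background, only proteins with at least twofold 3×MBT over mutant signal considered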
[2] = test system: 3×MBT domain of L3MBTL1; test: Triple SILAC pull-down, 3xMBT/3xMBTD355N ratio (cytoplasmic, nuclear and chromatin fractions of 293T cells); format: binding, human; conditions: for 3xMBT/D355N UNC Heavy: experiment with UNC0638 in heavy SILAC media; for 3xMBT/D355N UNC Light: experiment with UNC0638 in light SILAC media;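 as to all read-outs here: proteins quantified with MaxQuant, requiring at least two unique peptides and quantification in both label directions, normalized to the mean of proteins from a digested loading control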
[3] = SILAC ratio DMSO relative to UNC0638, pull-down with 3xMBT, all values in log base 2
[4] = SILAC ratio 3xMBT vs 3xMBTD355N pull-down, 293T cells, all values in log base 2
[5] = SILAC ratio DMSO/UNC0638 of protein pulled down with 3xMBT
[6] = SILAC ratio, pull-down 3xMBT vs 3xMBTD355N

Relative to UNC0638 UNC Heavy [1, 3] | Relative to UNC0638 UNC Light [1, 3] | Relative to UNC0638 Average ([1]; all values in log base 2) | Relative to UNC0638 UNC Heavy [1, 5] | Relative to UNC0638 UNC Light [1, 5] | Relative to UNC0638 Average [1] | Candidate G9a/GLP target ([1]; reduced association with 3xMBT after UNC0638 treatment) | Molecule | 3xMBT/D355N UNC Heavy [2, 4] | 3xMBT/D355N UNC Light [2, 4] | 3xMBT/D355N UNC Heavy [2, 6] | 3xMBT/D355N UNC Light [2, 6]
−0.09 log base 2 | −0.02 log base 2 | −0.06 log base 2 | – | – | – | – | ZRANB2 (protein, UniProt O95218 1-330, looked up) Zinc finger Ran-binding …: MSTKNFRVSDGDWICPDKKCGNVNFARRTSCNRCGREKTTEAKMMKAGGTEIGKTLAEKSRGLFSANDWQCKTCSNVNWARRSECNMCNTPKYAKLEERTGYGGGFNERENVEYIEREESDGEYDEFGRKKKKYRGKAVGPASILKEVEDKESEGEEEDEDEDLSKYKLDEDEDEDDADLSKYNLDASEEEDSNKKKSNRRSRSKSRSSHSRSSSRSSSPSSSRSRSRSRSRSSSSSQSRSRSSSRERSRSRGSKSRSSSRSHRGSSSPRKRSYSSSSSSPERNRKRSRSRSSSSGDRKKRRTRSRSPERRHRSSSGSSHSGSRSSSKKK | 0.71 log base 2 | 2.59 log base 2 | – | –
– | – | – | 0.55 log base 2 | 0.36 log base 2 | 0.46 log base 2 | ✓ | CYFIP1 (protein, UniProt Q7L576 1-1253, looked up) Cytoplasmic FMR1-interacting …: MAAQVTLEDALSNVDLLEELPLPDQQPCIEPPPSSLLYQPNFNTNFEDRNAFVTGIARYIEQATVHSSMNEMLEEGQEYAVMLYTWRSCSRAIPQVKCNEQPNRVEIYEKTVEVLEPEVTKLMNFMYFQRNAIERFCGEVRRLCHAERRKDFVSEAYLITLGKFINMFAVLDELKNMKCSVKNDHSAYKRAAQFLRKMADPQSIQESQNLSMFLANHNKITQSLQQQLEVISGYEELLADIVNLCVDYYENRMYLTPSEKHMLLKVMGFGLYLMDGSVSNIYKLDAKKRINLSKIDKYFKQLQVVPLFGDMQIELARYIKTSAHYEENKSRWTCTSSGSSPQYNICEQMIQIREDHMRFISELARYSNSEVVTGSGRQEAQKTDAEYRKLFDLALQGLQLLSQWSAHVMEVYSWKLVHPTDKYSNKDCPDSAEEYERATRYNYTSEEKFALVEVIAMIKGLQVLMGRMESVFNHAIRHTVYAALQDFSQVTLREPLRQAIKKKKNVIQSVLQAIRKTVCDWETGHEPFNDPALRGEKDPKSGFDIKVPRRAVGPSSTQLYMVRTMLESLIADKSGSKKTLRSSLEGPTILDIEKFHRESFFYTHLINFSETLQQCCDLSQLWFREFFLELTMGRRIQFPIEMSMPWILTDHILETKEASMMEYVLYSLDLYNDSAHYALTRFNKQFLYDEIEAEVNLCFDQFVYKLADQIFAYYKVMAGSLLLDKRLRSECKNQGATIHLPPSNRYETLLKQRHVQLLGRSIDLNRLITQRVSAAMYKSLELAIGRFESEDLTSIVELDGLLEINRMTHKLLSRYLTLDGFDAMFREANHNVSAPYGRITLHVFWELNYDFLPNYCYNGSTNRFVRTVLPFSQEFQRDKQPNAQPQYLHGSKALNLAYSSIYGSYRNFVGPPHFQVICRLLGYQGIAVVMEELLKVVKSLLQGTILQYVKTLMEVMPKICRLPRHEYGSPGILEFFHHQLKDIVEYAELKTVCFQNLREVGNAILFCLLIEQSLSLEEVCDLLHAAPFQNILPRVHVKEGERLDAKMKRLESKYAPLHLVPLIERLGTPQQIAIAREGDLLTKERLCCGLSMFEVILTRIRSFLDDPIWRGPLPSNGVMHVDECVEFHRLWSAMQFVYCIPVGTHEFTVEQCFGDGLHWAGCMIIVLLGQQRRFAVLDFCYHLLKVQKHDGKDEIIKNVPLKKMVERIRKFQILNDEIITILDKYLKSGDGEGTPVEHVRCFQPPIHQSLASS | – | – | 1.93 log base 2 | 1.58 log base 2
